Our source for the Kd values is publication PMC10643566, “Insights into the mechanism of SARS-CoV-2 main protease autocatalytic maturation from model precursors” (Communications Biology, 2023).

The target of assay [1] is mature MPro^E290A (SARS-CoV-2). Put plainly: enzyme kinetics (K_dimer from kcat/Km and the slope of rate vs the square of the protein concentration); FRET substrate at 200 µM, buffer B (25 mM Tris-HCl, pH 7, 50 mM NaCl, 1 mM TCEP), 28 °C; kcat/Km determined with equimolar GC373; dimer to monomers.
For assay [2], the target named is mature MPro^R298A (SARS-CoV-2). Described as above.

By Kd is commonly meant the free concentration of one partner at which half of the binding sites on the other are occupied at equilibrium, for simple one-to-one binding. High values mean lower affinity, low ones higher affinity.

With mature MPro^E290A (enzyme), the equilibrium dissociation constant (Kd) in assay [1] is 353 µM.

Regarding mature MPro^R298A (enzyme), the Kd in assay [2] was found to be 7.13 µM.
